In assay [1] the target is T1, human IL-17RA on HT1080 cells (human, UniProt Q96F46 33-866).
T1 sequence: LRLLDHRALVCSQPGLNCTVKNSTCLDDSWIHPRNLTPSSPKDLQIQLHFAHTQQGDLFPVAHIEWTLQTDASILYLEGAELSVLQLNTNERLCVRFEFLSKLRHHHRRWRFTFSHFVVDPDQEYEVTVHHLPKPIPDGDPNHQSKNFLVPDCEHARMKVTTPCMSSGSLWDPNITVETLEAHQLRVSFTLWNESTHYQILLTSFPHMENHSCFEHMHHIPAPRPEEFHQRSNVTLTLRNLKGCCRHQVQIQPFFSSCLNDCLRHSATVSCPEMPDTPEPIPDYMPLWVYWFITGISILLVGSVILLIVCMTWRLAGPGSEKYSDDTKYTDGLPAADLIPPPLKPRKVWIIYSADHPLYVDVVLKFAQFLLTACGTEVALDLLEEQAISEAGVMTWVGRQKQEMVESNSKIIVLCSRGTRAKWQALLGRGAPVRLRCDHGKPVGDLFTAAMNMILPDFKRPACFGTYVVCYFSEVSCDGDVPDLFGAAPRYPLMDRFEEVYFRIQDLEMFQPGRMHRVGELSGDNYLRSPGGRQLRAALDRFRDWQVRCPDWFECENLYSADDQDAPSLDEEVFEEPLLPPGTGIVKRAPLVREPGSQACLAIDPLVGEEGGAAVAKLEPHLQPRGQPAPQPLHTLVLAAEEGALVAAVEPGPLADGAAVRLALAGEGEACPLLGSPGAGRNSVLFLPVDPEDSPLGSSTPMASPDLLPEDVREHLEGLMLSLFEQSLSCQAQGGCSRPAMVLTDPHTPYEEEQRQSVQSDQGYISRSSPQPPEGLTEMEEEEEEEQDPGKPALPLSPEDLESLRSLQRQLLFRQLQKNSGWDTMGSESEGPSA
Nature of the assay: cell-based or functional assay.

The target of assay [2] is T1, human IL-17RA on HT1080 cells. Nature of the assay: cell-based or functional assay. This is another data set of the same source.
Assay [3] concerns the target T2, recombinant human IL-17RA Fc fusion protein (R&D Systems 177-IR-100) (human, UniProt Q96F46 33-320).
T2 construct: Bought protein; not shown: Fc domain of human IgG1
T2 sequence: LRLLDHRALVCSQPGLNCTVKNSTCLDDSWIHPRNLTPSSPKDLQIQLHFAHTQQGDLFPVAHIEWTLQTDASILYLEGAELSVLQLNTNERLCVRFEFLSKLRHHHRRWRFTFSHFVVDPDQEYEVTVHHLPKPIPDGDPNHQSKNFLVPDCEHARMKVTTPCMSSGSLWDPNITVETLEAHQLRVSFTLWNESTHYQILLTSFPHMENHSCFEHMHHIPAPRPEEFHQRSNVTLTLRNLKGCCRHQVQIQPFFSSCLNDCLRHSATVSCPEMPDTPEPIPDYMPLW
Description: IL-17RA ligand inhibition ELISA (FIG. 10A): VH competes with IL-17A for coated IL-17RA-Fc. The protocol: (§1) VH, both purified and crude periplasmic extracts, were also tested for their ability to inhibit the interaction of IL-17A with recombinant IL-17RA-Fc. […] Following washing of excess coating antigen, as described above, the wells of the plate were incubated with 3% Marvel/PBS to block non-specific protein interactions. VH preparations, crude periplasmic extracts or purified VH, or suitable controls, were prepared with 1 nM recombinant IL-17A (Peprotech, cat# AF-200-17) in 3% skimmed milk powder/PBS solution in polypropylene plates or tubes. The mixture was then transferred to the assay plate and incubated for 1 hour at room temperature. Excess protein was removed by washing and bound IL-17A was detected by incubation with biotinylated anti-IL-17A Mab (R & D Systems, cat BAF317) followed by the addition of neutravidin-HRP (Pierce, cat#31030) and TMB substrate (Sigma, cat# T0440). The TMB reaction was stopped by addition of 0.5M H₂SO₄ and absorbances were measured at 450 nm in a plate reader.

Assay [4] concerns the target T2, recombinant human IL-17RA Fc fusion …. Nature of the assay: BIAcore T200 single-cycle kinetics, IL-17RA-Fc captured on protein G chip, VH as analyte. The protocol:
Binding kinetics of anti-IL-17RA VH antibodies were measured on a BIAcore® T200 instrument. For IL-17RA, first a protein G chip was prepared by diluting protein G to 20 ug/ml in acetate buffer, pH 4 (BIAcore®, cat# BR-100-49) and then coupled 1200 RU to a CM5 Series S chip using amine coupling chemistry. This surface was then used to capture IL-17RA Fc fusion protein from solution: IL-17RA at 10 ug/ml in HBS injected for 10 seconds at 30 ul/min flow rate would capture approximately 100-150 RU of IL-17RA onto the protein G surface.
Binding kinetics of anti-IL-17RA VH antibodies were determined by single-cycle kinetics. VH antibodies were prepared in dilution series (typically 1:3 dilution series starting with 100 nM VH at the highest concentration), and then injected over the antigen coated surfaces and also a blank surface, starting with the lowest concentration of VH and then working progressively up to the highest concentration. VH binding kinetics were then determined from the (blank subtracted) sensorgram traces using 1:1 binding models and BIAevaluation software.
(In general: In SPR one partner is held on a chip, and binding of the other changes the refractive index at the surface.)

For assay [5] the target is unchanged. Description: receptor/ligand biochemical inhibition ELISA: VH competes with 1 nM IL-17A for coated IL-17RA-Fc. The method, then: as §1
A general note: In an ELISA, binding on a coated surface is turned into a signal by an enzyme label.

The target is the same in assay [6]. The description is as above. The protocol: as §1
This is another data set of the same source.

B1: VH clone 2.1 (VHH)
VHH: QVQLVQSGAEVKKPGASVKVSCKASGYPFTSYDINWVRQATGQSLEWMGWMNPNSGDTVYAQKFQGRVTMTRNTSISTAYMELSSLRSEDTAVYFCARGRRDDWKNNYWGQGTLVTVSS
notes: Human VH single domain antibody, no light chain; Parent clone of family 2; also called VH 2.1
As a reminder, the IC50 is the midpoint of a concentration-inhibition curve. Broadly, the Kd is a measure of binding affinity in units of concentration. The koff is the rate constant with which the complex falls apart. By kon is commonly meant the rate constant with which the complex forms. For B1, the “IC50 (nM), cell-based assay” value in assay [1] was determined as 363 nM. Further, the “Cell assay IC50” value in assay [2] came out at 280 nM. Besides, the IC50 in assay [3] is 4 nM. In addition, in assay [4], the Kd was 7 nM, the koff turned out to be 0.00263 s⁻¹ and the kon amounted to 368000 M⁻¹ s⁻¹. Moreover, the IC50 in assay [5] stood at 3.7 nM. Besides, in assay [6], the IC50 was 3.7 nM.
